Data from paper doi:10.1101/412908 (bioRxiv, 2018).

B1: human Hsp90β (natural protein)
chain: not shown
B2: acrylodan-labeled C-terminal domain of Aha1 (164-338) (domain or fragment)
chain: ILPTMNGESVDPVGQPALKTEERKAKPAPSKTQARPVGVKIPTCKITLKETFLTSPEELYRVFTTQELVQAFTHAPATLEADRGGKFHMVDGNVSGEFTDLVPEKHIVMKWRFKSWPEGHFATITLTFIDKNGETELCMEGRGIPAPEEERTRQGWQRYYFEGIKQTFGYGARLF
modifications: acrylodan (thiol-reactive probe on cysteine residues)

Key:
[1] = target: B2; test: other fluorescence titration
human Hsp90β = target: B1; test: other fluorescence titration
Sequence of human Hsp90β (P08238 whole entry): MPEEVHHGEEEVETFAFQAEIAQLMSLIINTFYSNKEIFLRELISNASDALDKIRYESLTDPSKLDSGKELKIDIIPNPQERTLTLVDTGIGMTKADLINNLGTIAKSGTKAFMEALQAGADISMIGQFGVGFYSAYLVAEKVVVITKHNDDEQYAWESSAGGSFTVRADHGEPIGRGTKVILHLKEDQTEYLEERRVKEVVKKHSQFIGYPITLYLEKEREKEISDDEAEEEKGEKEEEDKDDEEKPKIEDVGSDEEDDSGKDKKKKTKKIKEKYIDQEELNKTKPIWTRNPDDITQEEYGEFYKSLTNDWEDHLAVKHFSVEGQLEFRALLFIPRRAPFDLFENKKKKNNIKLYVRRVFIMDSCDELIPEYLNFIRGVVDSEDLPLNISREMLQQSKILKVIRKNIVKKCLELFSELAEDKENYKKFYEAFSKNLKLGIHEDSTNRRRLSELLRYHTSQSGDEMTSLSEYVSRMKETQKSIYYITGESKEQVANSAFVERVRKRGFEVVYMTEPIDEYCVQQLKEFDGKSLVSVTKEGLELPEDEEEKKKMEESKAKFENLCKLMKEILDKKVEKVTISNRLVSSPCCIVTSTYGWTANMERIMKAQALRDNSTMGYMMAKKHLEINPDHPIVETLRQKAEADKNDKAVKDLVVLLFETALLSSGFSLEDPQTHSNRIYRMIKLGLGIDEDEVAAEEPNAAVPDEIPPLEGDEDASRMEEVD

Binder: B1
- fold increase in Kd with SEW04784 against without [1]: 2.5 fold

Binder: B2
- binding result (human Hsp90β): binds
